Biological target: the molecule itself
Assay: cross-linking; disulfide cross-link at Cys43 of freshly purified kinase; diluted in KPE buffer (10 mM potassium phosphate, 1 mM EDTA, pH 7.0) with 0, 5 or 15 mM DTT, 1 h on ice; maleimide in SDS sample buffer, nonreducing 9% SDS-PAGE without heating, anti-Flag Western blot

B1: Flag-tagged WT PKGIα (type I cGMP-dependent protein kinase, alpha isoform) (enzyme, UniProt Q13976 1-671, looked up)
chain: MSELEEDFAKILMLKEERIKELEKRLSEKEEEIQELKRKLHKCQSVLPVPSTHIGPRTTRAQGISAEPQTYRSFHDLRQAFRKFTKSERSKDLIKEAILDNDFMKNLELSQIQEIVDCMYPVEYGKDSCIIKEGDVGSLVYVMEDGKVEVTKEGVKLCTMGPGKVFGELAILYNCTRTATVKTLVNVKLWAIDRQCFQTIMMRTGLIKHTEYMEFLKSVPTFQSLPEEILSKLADVLEETHYENGEYIIRQGARGDTFFIISKGTVNVTREDSPSEDPVFLRTLGKGDWFGEKALQGEDVRTANVIAAEAVTCLVIDRDSFKHLIGGLDDVSNKAYEDAEAKAKYEAEAAFFANLKLSDFNIIDTLGVGGFGRVELVQLKSEESKTFAMKILKKRHIVDTRQQEHIRSEKQIMQGAHSDFIVRLYRTFKDSKYLYMLMEACLGGELWTILRDRGSFEDSTTRFYTACVVEAFAYLHSKGIIYRDLKPENLILDHRGYAKLVDFGFAKKIGFGKKTWTFCGTPEYVAPEIILNKGHDISADYWSLGILMYELLTGSPPFSGPDPMKTYNIILRGIDMIEFPKKIAKNAANLIKKLCRDNPSERLGNLKNGVKDIQKHKWFEGFNWEGLRKGTLTPPIIPSVASPTDTSNFDSFPEDNDEPPPDDNSGWDIDF
notes: PKGIα, the alpha isoform of type I cGMP-dependent protein kinase; On oxidation the two chains of the homodimer are joined by a disulfide between their Cys43 residues; source: HEK293T, transiently transfected, purified (anti-Flag beads, eluted in PBS with Flag peptide)
For B1, the “stoichiometry N” value was 2.

Reference: paper PMC9293632, “PKGIα is activated by metal-dependent oxidation in vitro but not in intact cells” (The Journal of Biological Chemistry, 2022)
